{"source": "patent US20230212319A1", "about": "“NOVEL ANTIGEN BINDING DOMAINS AND SYNTHETIC ANTIGEN RECEPTORS INCORPORATING THE SAME” (University of Southern California, priority 2020, published 2023)", "molecules": {"B1": {"name": "22146 (protein)", "chain": "MALPVTALLLPLALLLHAARPACEVQLLESGGGLIQPGGSLRLSCAASGFTFSSHAMTWVRQAPGKGLEWVSAISGSGDYTHYADSVKGRFTISRDNSKNTVYLQMNSLRAEDSAVYYCAKDEDGGSLLGHRGQGTLVTVSSGTGGGGSGGGGSGGGGSEFDIQMTQSPSSLSASVGDRVTITCRASQDISNYLNWYQQKPGKAVKLLIYYTSILHSGVPSRFSGSGSGTDYTLTISSLQPEDFATYFCQQGNTLPWTFGGGTKVEIKLEGQPKANPTVTLFPPSSEELQANKATLVCLISDFYPGAVTVAWKADGSPVKAGVETTKPSKQSNNKYAASSYLSLTPEQWKSHRSYSCQVTHEGSTVEKTVAPTECSGRADCGFTSESYQQGVLSATILYEILLGKATLYAVLVSALVLMAMVKRKDSRGRAKRSGSGATNFSLLKQAGDVEENPGPTSATMDWIWRILFLVGAATGAHSGPQVQLQESGGGLAQAGGSLRLSCAASGRTFSMGWFRQAPGKEREFVAAITYSGGSPYYASSVRGRFTISRDNAKNTVYLQMNSLKPEDTAVYYCAANPTYGSDWNAENWGQGTQVTVSSGSGGGGSGGGGSGGGGSFEVQLVESGGGLVKPGGSLKLSCAASGFAFSIYDMSWVRQAPGKGLEWVAYISSGGGTTYYPDTVKGRFTISRDNAKNTLYLQMSSLRAEDTAMYYCARHSGYGSSYGVLFAYWGQGTLVTVSSTRASTKGPSVFPLAPSSKSTSGGTAALGCLVKDYFPEPVTVSWNSGALTSGVHTFPAVLQSSGLYSLSSVVTVPSSSLGTQTYICNVNHKPSNTKVDKRVEPKSCIPEDTFFPSPESSCDVKLVEKSFETDTNLNFQNLSVIGFRILLLKVAGFNLLMTLRLWSSRAKRSGSGVKQTLNFDLLKLAGDVESNPGPSRGHMTEYKPTVRLATRDDVPRAVRTLAAAFADYPATRHTVDPDRHIERVTELQELFLTRVGLDIGKVWVADDGAAVAVWTTPESVEAGAVFAEIGPRMAELSGSRLAAQQQMEGLLAPHRPKEPAWFLATVGVSPDHQGKGLGSAVVLPGVEAAERAGVPAFLETSAPRNLPFYERLGFTVTADVEVPEGPRTWCMTRKPGA"}, "B2": {"name": "22257 (protein)", "chain": "MGPRLLFWALLCLLGTGPVEAGVTQSPTHLIKTRGQQATLRCSPISGHTSVYWYQQALGLGLQFLLWYDEGEERNRGNFPPRFSGRQFPNYSSELNVNALELEDSALYLCASSLGGPRGLAGLRGDEQFFGPGTRLTVLEGTGGGGSGGGEFDIQMTQSPSSLSASVGDRVTITCKASDHINNWLAWYQQKPGQAPKLLIYGATTLETGVPSRFSGSGSGTDYTLTISSLQPEDFATYYCQQSWNTPWTFGQGTKLEIKRLEGQPKANPTVTLFPPSSEELQANKATLVCLISDFYPGAVTVAWKADGSPVKAGVETTKPSKQSNNKYAASSYLSLTPEQWKSHRSYSCQVTHEGSTVEKTVAPTECSGRADCGFTSESYQQGVLSATILYEILLGKATLYAVLVSALVLMAMVKRKDSRGRAKRSGSGATNFSLLKQAGDVEENPGPTSATMDWIWRILFLVGAATGAHSGPQVQLQESGGGLAQAGGSLRLSCAASGRTFSMGWFRQAPGKEREFVAAITYSGGSPYYASSVRGRFTISRDNAKNTVYLQMNSLKPEDTAVYYCAANPTYGSDWNAENWGQGTQVTVSSGSGGGGSGGGGSGGGGSFEQVQLQQPGAELVKPGASVKMSCKASGYAFSSYWINWMKQKPGQGLEWIGQIYPGDGDTNYNGKFKGRATLTADTSSSTAYMQLSSLTSEDSAVYFCARSITTVVGCAMDYWGQGTSVTVSSTRASTKGPSVFPLAPSSKSTSGGTAALGCLVKDYFPEPVTVSWNSGALTSGVHTFPAVLQSSGLYSLSSVVTVPSSSLGTQTYICNVNHKPSNTKVDKRVEPKSCIPEDTFFPSPESSCDVKLVEKSFETDTNLNFQNLSVIGFRILLLKVAGFNLLMTLRLWSSRAKRSGSGVKQTLNFDLLKLAGDVESNPGPSRGHMTEYKPTVRLATRDDVPRAVRTLAAAFADYPATRHTVDPDRHIERVTELQELFLTRVGLDIGKVWVADDGAAVAVWTTPESVEAGAVFAEIGPRMAELSGSRLAAQQQMEGLLAPHRPKEPAWFLATVGVSPDHQGKGLGSAVVLPGVEAAERAGVPAFLETSAPRNLPFYERLGFTVTADVEVPEGPRTWCMTRKPGA"}, "B3": {"name": "22256 (protein)", "chain": "MGPRLLFWALLCLLGTGPVEAGVTQSPTHLIKTRGQQATLRCSPISGHTSVYWYQQALGLGLQFLLWYDEGEERNRGNFPPRFSGRQFPNYSSELNVNALELEDSALYLCASSLGGPRGLAGLRGDEQFFGPGTRLTVLEGTGGGGSGGGEFDIQMTQSPSSLSASVGDRVTITCKASDHINNWLAWYQQKPGQAPKLLIYGATTLETGVPSRFSGSGSGTDYTLTISSLQPEDFATYYCQQSWNTPWTFGQGTKLEIKRLEDLKNVFPPEVAVFEPSEAEISHTQKATLVCLATGFYPDHVELSWWVNGKEVHSGVCTDPQPLKEQPALNDSRYCLSSRLRVSATFWQNPRNHFRCQVQFYGLSENDEWTQDRAKPVTQIVSAEAWGRADCGFTSESYQQGVLSATILYEILLGKATLYAVLVSALVLMAMVKRKDSRGRAKRSGSGATNFSLLKQAGDVEENPGPTSATMDWIWRILFLVGAATGAHSGPEVQLVESGGGLVQAGGSLRLSCAASGRTFSMGWFRQAPGKEREFVAAITYSGGSPYYADSVKGRFTISRDNAKNTVYLQMNSLKPEDTAVYYCAANPTYGSDWNAENWGQGTQVTVSSGSGGGGSGGGGSGGGGSFEQVQLQQPGAELVKPGASVKMSCKASGYAFSSYWINWMKQKPGQGLEWIGQIYPGDGDTNYNGKFKGRATLTADTSSSTAYMQLSSLTSEDSAVYFCARSITTVVGCAMDYWGQGTSVTVSSTRIQNPDPAVYQLRDSKSSDKSVCLFTDFDSQTNVSQSKDSDVYITDKCVLDMRSMDFKSNSAVAWSNKSDFACANAFNNSIIPEDTFFPSPESSCDVKLVEKSFETDTNLNFQNLSVIGFRILLLKVAGFNLLMTLRLWSSRAKRSGSGVKQTLNFDLLKLAGDVESNPGPSRGHMTEYKPTVRLATRDDVPRAVRTLAAAFADYPATRHTVDPDRHIERVTELQELFLTRVGLDIGKVWVADDGAAVAVWTTPESVEAGAVFAEIGPRMAELSGSRLAAQQQMEGLLAPHRPKEPAWFLATVGVSPDHQGKGLGSAVVLPGVEAAERAGVPAFLETSAPRNLPFYERLGFTVTADVEVPEGPRTWCMTRKPGA"}, "B4": {"name": "22144 (protein)", "chain": "MALPVTALLLPLALLLHAARPMLPAPKNLVVSRITEDSARLSWTAPDAAFDSFPIRYIETLIWGEAIWLDVPGSERSYDLTGLKPGTEYAVVITGVKGGRFSSPLVASFTTGTGGGGSGGGGSGGGGSEFDIQMTQSPSSLSASVGDRVTITCRASQDISNYLNWYQQKPGKAVKLLIYYTSILHSGVPSRFSGSGSGTDYTLTISSLQPEDFATYFCQQGNTLPWTFGGGTKVEIKLEDLKNVFPPEVAVFEPSEAEISHTQKATLVCLATGFYPDHVELSWWVNGKEVHSGVCTDPQPLKEQPALNDSRYCLSSRLRVSATFWQNPRNHFRCQVQFYGLSENDEWTQDRAKPVTQIVSAEAWGRADCGFTSESYQQGVLSATILYEILLGKATLYAVLVSALVLMAMVKRKDSRGRAKRSGSGATNFSLLKQAGDVEENPGPTSMDWIWRILFLVGAATGAHSFEVQLVESGGGLVKPGGSLKLSCAASGFAFSIYDMSWVRQAPGKGLEWVAYISSGGGTTYYPDTVKGRFTISRDNAKNTLYLQMSSLRAEDTAMYYCARHSGYGSSYGVLFAYWGQGTLVTVSSTRIQNPDPAVYQLRDSKSSDKSVCLFTDFDSQTNVSQSKDSDVYITDKCVLDMRSMDFKSNSAVAWSNKSDFACANAFNNSIIPEDTFFPSPESSCDVKLVEKSFETDTNLNFQNLSVIGFRILLLKVAGFNLLMTLRLWSSRAKRSGSGVKQTLNFDLLKLAGDVESNPGPSRGHMTEYKPTVRLATRDDVPRAVRTLAAAFADYPATRHTVDPDRHIERVTELQELFLTRVGLDIGKVWVADDGAAVAVWTTPESVEAGAVFAEIGPRMAELSGSRLAAQQQMEGLLAPHRPKEPAWFLATVGVSPDHQGKGLGSAVVLPGVEAAERAGVPAFLETSAPRNLPFYERLGFTVTADVEVPEGPRTWCMTRKPGA"}}, "assay_type_in_all_cases": "cell-based", "key": {"Raji-CD22-KO": {"test_system": "Raji-CD22-KO", "assay": "JNG NFAT-GFP assay, co-culture with Raji-CD22-KO cells"}, "RAJI cells": {"test_system": "RAJI cells", "assay": "JNG assay, co-culture with RAJI cells", "settings": "JNG cells expressing construct, co-culture with Raji", "in_short": "(§1)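 Jurkat NFAT-GFP (JNG) cells stably transduced with SARs by lentivirus, with drug selection where the construct carried a resistance gene, then co-cultured with target cells at E:T ~1:2 for ~4–18 h. % GFP-positive cells measured by FACS against parental JNG; +/- to 5+ correspond to ~5–50% GFP-positive.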"}, "Nalm6 cells": {"test_system": "Nalm6 cells", "assay": "JNG assay, co-culture with Nalm6 cells", "settings": "co-culture with Nalm6", "in_short": "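Read-out is % GFP-positive cells by flow cytometry after ~4–18 h co-culture (E:T ≈1:2) of target lines with SAR-transduced, puromycin/blasticidin-selected JNG cells. Grades +/-, +, 2+…5+ correspond to approximately 5%, 10%, 20%, 30%, 40%, 50% GFP+ over parental JNG controls.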"}, "U266 cells": {"test_system": "U266 cells", "assay": "JNG NFAT-GFP induction on co-culture with U266"}, "L363 cells": {"test_system": "L363 cells", "assay": "JNG assay, co-culture with L363 cells", "settings": "co-culture with L363", "in_short": "as §1"}, "HepG2 cells": {"test_system": "HepG2 cells"}}, "data": [{"molecule": "B1", "values": [{"measurement": "NFAT-GFP ASSAY: Raji-CD22-KO", "setting": "Raji-CD22-KO", "result": "3+ (refer to approximately 5%, 10%, 20%, 30%, 40% and 50% GFP positive cells)"}, {"measurement": "NFAT-GFP ASSAY: Raji", "setting": "RAJI cells", "result": "2+ (refer to approximately 5%, 10%, 20%, 30%, 40% and 50% GFP positive cells)"}, {"measurement": "NFAT-GFP ASSAY: Nalm6", "setting": "Nalm6 cells", "result": "+/- (refer to approximately 5%, 10%, 20%, 30%, 40% and 50% GFP positive cells)"}, {"measurement": "NFAT-GFP ASSAY: U266", "setting": "U266 cells", "result": "2+ (refer to approximately 5%, 10%, 20%, 30%, 40% and 50% GFP positive cells)"}, {"measurement": "NFAT-GFP ASSAY: L363", "setting": "L363 cells", "result": "+ (refer to approximately 5%, 10%, 20%, 30%, 40% and 50% GFP positive cells)"}]}, {"molecule": "B2", "values": [{"measurement": "NFAT-GFP ASSAY: HepG2", "setting": "HepG2 cells", "result": "RAJI (2+), HepG2 (-/^+)"}]}, {"molecule": "B3", "values": [{"measurement": "NFAT-GFP ASSAY: HepG2", "setting": "HepG2 cells", "result": "RAJI (+/-), HepG2 (-/^+)"}]}, {"molecule": "B4", "values": [{"measurement": "NFAT-GFP ASSAY: Raji-CD22-KO", "setting": "Raji-CD22-KO", "result": "+/- (refer to approximately 5%, 10%, 20%, 30%, 40% and 50% GFP positive cells)"}, {"measurement": "NFAT-GFP ASSAY: Raji", "setting": "RAJI cells", "result": "+ (refer to approximately 5%, 10%, 20%, 30%, 40% and 50% GFP positive cells)"}, {"measurement": "NFAT-GFP ASSAY: Nalm6", "setting": "Nalm6 cells", "result": "+/- (refer to approximately 5%, 10%, 20%, 30%, 40% and 50% GFP positive cells)"}, {"measurement": "NFAT-GFP ASSAY: U266", "setting": "U266 cells", "result": "3+ (refer to approximately 5%, 10%, 20%, 30%, 40% and 50% GFP positive cells)"}, {"measurement": "NFAT-GFP ASSAY: L363", "setting": "L363 cells", "result": "+ (refer to approximately 5%, 10%, 20%, 30%, 40% and 50% GFP positive cells)"}]}]}
